These results are taken from article doi:10.1101/2021.03.07.432812 (bioRxiv, 2021).

The target in data set [1] is T1, Human Spindlin1 50-262 (human, UniProt Q9Y657 50-262). Kind of data set: ITC. Background: In ITC the heat of successive injections is recorded.
Data set [2] deals with Spindlin1_(50-262) bound to DOCpep(1-3) (human | , UniProt Q9Y657 50-262; Q9BUA3 188-281). The data set is described as follows: ITC.
Data set [3] deals with T2, Spindlin1_(50-262) bound to DOCpep3 (human | , UniProt Q9Y657 50-262; Q9BUA3 256-281).
T2 chain 1: […]
T2 chain 2: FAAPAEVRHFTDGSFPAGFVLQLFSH
The data set is described as follows: ITC.

The data set “SEC” concerns the molecule itself. Kind of data set: SEC. A general note: Size exclusion chromatography separates by hydrodynamic size, large species first.
The data set “native gel or EMSA” deals with the molecule itself. The data set is described as follows: native gel or EMSA.
In a further data set the target is Spindlin1 W151A (human, UniProt Q9Y657 50-262, W151A). The data set is described as follows: ITC.
In another data set the target is Spindlin1 F141A (human, UniProt Q9Y657 50-262, F141A). The data set is described as follows: ITC.
A further data set has as its target Spindlin1 Y177A (human, UniProt Q9Y657 50-262, Y177A). The data set is described as follows: ITC.
Data set [4] addresses T1, Human Spindlin1 50-262. The data set is described as follows: thermal shift assay.

In general, Kd refers to the free concentration of one partner at which half of the binding sites on the other are occupied at equilibrium, for simple one-to-one binding. Read a high Kd as lower affinity. As usually defined, the stoichiometry N is a count of units in the complex or per binding partner.

Where no end group is shown, it is not given here. [ ]: non-standard residue; d: D form. Lys(Me3) = C[N+](C)(C)CCCC[C@H](N)C(=O)O; Lys(Me2) = CN(C)CCCC[C@H](N)C(=O)O; Lys(Me) = CNCCCC[C@H](N)C(=O)O

Sequence of Spindlin1 Y177A (Q9Y657 50-262 Y177A): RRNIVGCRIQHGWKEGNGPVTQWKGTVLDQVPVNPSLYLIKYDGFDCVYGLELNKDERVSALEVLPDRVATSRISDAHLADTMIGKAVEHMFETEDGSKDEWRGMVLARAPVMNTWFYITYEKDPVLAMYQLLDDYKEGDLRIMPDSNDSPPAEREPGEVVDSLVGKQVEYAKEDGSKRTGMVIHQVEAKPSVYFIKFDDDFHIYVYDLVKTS
Sequence of Spindlin1 F141A (Q9Y657 50-262 F141A): as the sequence (Q9Y657 50-262 Y177A) above, with F92A, A128Y counted along it
Sequence of Spindlin1 W151A (Q9Y657 50-262 W151A): as the sequence (Q9Y657 50-262 Y177A) above, with W102A, A128Y counted along it

B1: DOCpep1, SPIN•DOC 187-195 peptide (peptide)
peptide: LPKRSRPRG
With B1, binding with Human Spindlin1 50-262 [1] was put at a Kd of 78 µM.

B2: DOCpep1 R192A peptide (peptide)
peptide: LPKRSAPRG
B2: in the data set with Human Spindlin1 50-262 [1], the “fold reduction of binding against wild-type DOCpep1” value stood at 11 fold.

B3: DOCpep1 K189A peptide (peptide)
peptide: LPARSRPRG
B3: in the data set with Human Spindlin1 50-262 [1], the “fold reduction of binding against wild-type DOCpep1” value stood at 9 fold.

B4: histone H3 1-15 K4me3K9me2 peptide (peptide)
peptide: ART[Lys(Me3)]QTAR[Lys(Me2)]STGGKA
With B4, the “fold decrease of binding affinity in the presence of DOCpep(1-3)” value in data set [2] was ~4.5 fold. The binding result in [3] is listed as “binds”.

B5: full-length SPIN•DOC with N-terminal 6xHis tag, co-expressed with Spindlin1 (natural protein, UniProt Q9BUA3 1-381, looked up)
chain: MALKAEGAALDCFEVTLKCEEGEDEEEAMVVAVIPRPEPMLRVTQQEKTPPPRPSPLEAGSDGCEEPKQQVSWEQEFLVGSSPGGSGRALCMVCGAEIRAPSADTARSHILEQHPHTLDLSPSEKSNILEAWSEGVALLQDVRAEQPSPPNSDSGQDAHPDPDANPDAARMPAEIVVLLDSEDNPSLPKRSRPRGLRPLELPAVPATEPGNKKPRGQRWKEPPGEEPVRKKRGRPMTKNLDPDPEPPSPDSPTETFAAPAEVRHFTDGSFPAGFVLQLFSHTQLRGPDSKDSPKDREVAEGGLPRAESPSPAPPPGLRGTLDLQVIRVRMEEPPAVSLLQDWSRHPQGTKRVGAGDTSDWPTVLSESSTTVAGKPEKGNGV
Turning to B5, the “stoichiometry N” value in the data set “SEC” stood at 2.

B6: Flag-SPIN•DOC wild type (natural protein, UniProt Q9BUA3 1-381, looked up)
chain: B5 chain
B6: in “native gel or EMSA”, the “stoichiometry N” value was found to be 2.

B7: GFP-SPIN•DOC wild type (natural protein, UniProt Q9BUA3 1-381, looked up)
chain: B5 chain
On to B7, for which, in the data set “native gel or EMSA”, the “stoichiometry N” value came out at 2.

B8: DOCpep2, SPIN•DOC 228-239 peptide (peptide, UniProt Q9BUA3 228-239, looked up)
peptide: VRKKRGRPMTKN
Regarding B8, the binding result with Spindlin1 W151A, with Spindlin1 F141A and with Spindlin1 Y177A was “binds” throughout. Besides, in the data set with Human Spindlin1 50-262 [1], binding was put at a Kd of 31 µM.

B9: histone H3 1-15 K4me3K9me1 peptide (peptide)
peptide: ART[Lys(Me3)]QTAR[Lys(Me)]STGGKA
With B9, the “fold decrease of binding affinity in the presence of DOCpep(1-3)” value in [2] was ~17 fold. Further, in data set [3], the binding result is “binds”.

B10: SPIN•DOC 184-240, the whole K/R-rich region (domain or fragment)
chain: NPSLPKRSRPRGLRPLELPAVPATEPGNKKPRGQRWKEPPGEEPVRKKRGRPMTKNL
For B10, in the data set with Human Spindlin1 50-262 [1], binding was characterised by a dissociation constant (Kd) of 7.6 µM and the “stoichiometry N” value came out at 0.5.

B11: histone H3 1-15 K4me3K9me3 peptide (peptide)
peptide: ART[Lys(Me3)]QTAR[Lys(Me3)]STGGKA
As to B11, the binding result in data set [3] was “binds”.

B12: SPIN•DOC 188-281, DOCpep(1-3) (domain or fragment)
chain: PKRSRPRGLRPLELPAVPATEPGNKKPRGQRWKEPPGEEPVRKKRGRPMTKNLDPDPEPPSPDSPTETFAAPAEVRHFTDGSFPAGFVLQLFSH
Regarding B12, the binding result with Human Spindlin1 50-262 [4] is on record as “binds”.
